# Molecular target: wild-type NS3 protein of hepatitis C virus (hepatitis C virus) (UniProt Q9WMX2)
# Assay: cell-based or functional assay
substance,measurement,value
D290A NS3 (ATPase-deficient mutant NS3 protein) (from UniProt Q9WMX2 1027-1657),"fold decrease in activity of the HCV-Luc replicon (luciferase) in Huh-7 cells, 48 h",9 fold

# Reference: patent publication US20060246421A1
